# In patent publication US20130330346A1 (Novartis, published 2013):
# Substitutions are numbered along the chain they refer to. Like-named read-outs stand apart in the source and are kept apart here. Ends that are not written are not given here.
# B1: CXCR20020 (bispecific antibody)
# chain: EVQLVESGGGLVQAGESLRLSCAASGSTFDFKVMGWYRQPPGKQREGVAAIRLSGNMHYAESVKGRFTISKANAKNTVYLQMNSLRPEDTAVYYCKVNIRGQDYWGQGTQVTVSSGGGGSGGGGSGGGGSGGGGSGGGGSGGGGSGGGGSEVQLVESGGGLVQAGGSLRLSCAASGRTFSDYAMGWFRQAPGKEREFVAAITWNGGRVFYTASVKGRFTISRDNAKNTMYLQMNSLKPEDTAVYYCAADKDRRTDYLGHPVAYWGQGTQVTVSS
# notes: Biparatopic: two VHH joined by a GlySer linker; also called 127D1-35GS-163D2; 127D1-163D2; not shown: C-terminal c-myc tag and His6 tag coded by pAX100
# B2: CXCR20059 (VHH)
# VHH: EVQLLESGGGLVQPGGSLRLSCAASGSILTINAMGWYRQAPGKQRELVVRRTRGGSTTYQDSVKGRFTISADISKKTMYLQMNSLRPEDTAVYYCLLDDRGGVYWGQGTLVTVSS
# B3: CXCR20063 (VHH)
# VHH: B2 VHH with K76N
# B4: 2B2 (VHH)
# VHH: B2 VHH with L5V, G10E, S74A, R86K, L96M, L110Q
# notes: Tested as periplasmic extract (pAX50) and as purified His6-tagged protein (pAX100); also called 002B02; not shown: C-terminal c-myc tag and His6 tag coded by the vector
# B5: CXCR20026 (bispecific antibody)
# chain: EVQLVESGGGLVQPGGSLRLSCVASGRIFSSNAMGWFRQAPGKEREFVAAITWRSGGSAYYADSAKGRFTISRDNAKNTVYLQMNSLKPEDTAVYYCAAGGSSWLSFPPDYWGQGTQVTVSSGGGGSGGGGSGGGGSGGGGSGGGGSGGGGSGGGGSEVQLVESGGGLVQAGESLRLSCAASGSTFDFKVMGWYRQPPGKQREGVAAIRLSGNMHYAESVKGRFTISKANAKNTVYLQMNSLRPEDTAVYYCKVNIRGQDYWGQGTQVTVSS
# notes: Biparatopic: two VHH joined by a GlySer linker; also called 163E3-35GS-127D1; 163E3-127D1; not shown: C-terminal c-myc tag and His6 tag coded by pAX100
# B6: CXCR20014 (bispecific antibody)
# chain: EVQLVESGGGLVQPGGSLRLSCVASGSIVRINTMGWYRQTPGKQRELVADITSGGNINYIDAVKGRFTISRDNTKNTVYLQMNSLKPEDTAVYYCNAEIVVLVGVWTQRARTGNYWGQGTQVTVSSGGGGSGGGGSGGGGSGGGGSGGGGSGGGGSGGGGSEVQLVESGGELVQPGGSLRLSCAASGSILTINAMGWYRQAPGKQRELVVRRTRGGSTTYQDSVKGRFTISADIAKKTMYLQMNSLKPEDTAVYYCMLDDRGGVYWGQGTQVTVSS
# notes: Biparatopic: two VHH joined by a GlySer linker; also called 97A9-35GS-2B2; 97A9-2B2; not shown: C-terminal c-myc tag and His6 tag coded by pAX100
# Experiments:
# [1] = molecular target: T1, Cynomolgus CXCR2 (cynomolgus, UniProt Q28519 3-353 (rhesus entry)); assay: cell-based or functional assay
# T1 chain: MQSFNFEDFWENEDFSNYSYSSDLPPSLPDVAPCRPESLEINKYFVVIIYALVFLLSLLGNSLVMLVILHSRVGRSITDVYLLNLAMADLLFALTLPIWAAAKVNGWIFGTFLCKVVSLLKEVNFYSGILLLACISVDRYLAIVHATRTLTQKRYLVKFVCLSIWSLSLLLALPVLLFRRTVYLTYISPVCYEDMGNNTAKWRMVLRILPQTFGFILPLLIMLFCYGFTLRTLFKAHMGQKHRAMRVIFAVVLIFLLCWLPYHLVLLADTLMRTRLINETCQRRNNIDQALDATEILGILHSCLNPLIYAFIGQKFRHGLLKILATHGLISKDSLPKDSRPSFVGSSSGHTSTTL
# [2] = molecular target: T2, Human CXCR2 (human, UniProt P25025 1-360); assay: cell-based or functional assay
# T2 sequence: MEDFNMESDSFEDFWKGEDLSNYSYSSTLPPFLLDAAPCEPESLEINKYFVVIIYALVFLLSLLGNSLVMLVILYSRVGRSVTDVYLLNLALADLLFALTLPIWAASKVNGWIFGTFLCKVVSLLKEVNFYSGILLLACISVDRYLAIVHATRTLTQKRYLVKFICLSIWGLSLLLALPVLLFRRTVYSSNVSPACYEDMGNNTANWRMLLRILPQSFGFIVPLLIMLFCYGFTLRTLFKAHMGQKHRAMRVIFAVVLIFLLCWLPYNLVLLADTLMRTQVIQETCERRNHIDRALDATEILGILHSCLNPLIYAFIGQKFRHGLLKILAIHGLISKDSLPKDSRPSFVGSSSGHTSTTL
# [3] = molecular target: T1, Cynomolgus CXCR2; assay: cell-based or functional assay
# [4] = molecular target: T2, Human CXCR2; assay: cell-based or functional assay; remark: listed apart in the source
# [5] = molecular target: T2, Human CXCR2; assay: cell-based or functional assay; remark: listed apart in the source
# [6] = molecular target: T1, Cynomolgus CXCR2; assay: FACS competition vs 3 nM FMAT-Blue Gro-α
# Method: (§1) Multivalent anti-CXCR2Nanobodies were titrated against 3 nM FMAT-Blue-labeled Gro-α in the FACS ligand competition assay on human and cynomolgus CXCR2 (Table 14). On human CXCR2, blocking potencies range between double digit nM and sub-nM whereas on cynomolgus CXCR2, they range between single and double digit nM.
# [7] = molecular target: T2, Human CXCR2; assay: FACS competition vs 3 nM FMAT-Blue Gro-α
# Method: as §1
# [8] = molecular target: T1, Cynomolgus CXCR2; assay: FACS hGro-α competition
# [9] = molecular target: T2, Human CXCR2; assay: FACS hGro-α competition
# [10] = molecular target: T1, Cynomolgus CXCR2; assay: cell-based or functional assay
# [11] = molecular target: T2, Human CXCR2; assay: cell-based or functional assay; remark: listed apart in the source
# [12] = molecular target: T1, Cynomolgus CXCR2; assay: FACS competition vs 3 nM FMAT-Blue Gro-α
# Method: (§2) Purified monovalent anti-CXCR2Nanobodies were titrated against 3 nM FMAT-Blue-labeled Gro-α in the FACS ligand competition assay on human and cynomolgus CXCR2 (Table 10). On human CXCR2, blocking potencies range between double digit nM and sub-nM whereas on cynomolgus CXCR2, they range between single and double digit nM.
# [13] = molecular target: T2, Human CXCR2; assay: FACS competition vs 3 nM FMAT-Blue Gro-α; remark: listed apart in the source
# Method: as §2
# [14] = molecular target: T3, Human 1to19 peptide (human); assay: ELISA, periplasmic extract on biotinylated peptide
# T3 construct: First 19 N-terminal amino acids of human CXCR2, captured on neutravidin; also called human CXCR2 1 to19 peptide; 1-19 Nter peptide
# T3 peptide: MEDFNMESDSFEDFWKGED-biotin
# Method: In another setup, periplasmic extracts were analyzed for binding to human 1 to 19 peptide by ELISA. MaxiSorb plates (Nunc, 430341) were coated for two hours with neutravidin followed by one hour blocking (PBS, 1% casein). Then 100 nM biotinylated human 1 to 19 peptide was added to these plates for one hour (PBS, 0.1% casein, 0.05% tween20) followed by one hour incubation with 10-fold dilutions of periplasmic extracts. Unbound periplasmic extracts were washed away (PBS supplemented with 0.05% tween20) and bound Nanobodies were detected using mouse anti-myc (Roche, 11667149001) followed by rabbit anti-mouse-HRP conjugate (Dakocytomation, P0260). Table 8 summarizes the ratios of the binding signals of anti-CXCR2Nanobodies over an irrelevant control Nanobody.
# [15] = molecular target: T1, Cynomolgus CXCR2; assay: cell-based or functional assay
# [16] = molecular target: T2, Human CXCR2; assay: cell-based or functional assay; remark: listed apart in the source
# [17] = molecular target: T2, Human CXCR2; assay: FACS, periplasmic extract vs FMAT Blue Gro-α
# Method: Periplasmic extracts (as described above) were analyzed on FACS for competition with Gro-α in binding to human CXCR2. 2×10⁵ cells were incubated with a ½ dilution of periplasmic extracts in FACS buffer (PBS+10% fetal bovine serum (Sigma, F7524)) for 30 minutes at 4° C. Then, an equal volume of 6 nM of FMAT Blue-labeled human Gro-α in FACS buffer was added and incubation was continued for another 30 minutes at 4° C. in the dark. Cells were then washed three times in FACS buffer and finally resuspended in FACS buffer. Dead cells were stained with propidium iodide (Sigma, P4170). Samples were then analyzed on a FACSarray (BD Biosciences).
# [18] = molecular target: T1, Cynomolgus CXCR2; assay: cell-based or functional assay
# [19] = molecular target: T2, Human CXCR2; assay: cell-based or functional assay; remark: listed apart in the source
# [20] = molecular target: T2, Human CXCR2; assay: cell-based or functional assay; remark: listed apart in the source
Binder,FLIPR % inhibition of max [1] [%],FLIPR IC50 (GRO-α induced calcium release) [1] [nM],FLIPR % inhibition of max [2] [%],FLIPR IC50 (GRO-α induced calcium release) [2] [nM],Cynomologus WBSC IC50 (rhGROα) [3] [nM],Human Chemotaxis IC50 (rhGROα) [4] [nM],Human WBSC IC50 (rhGROα) [4] [nM],[35S]GTPγS % inhibition of max (ENA-78) [5] [%],[35S]GTPγS % inhibition of max (GRO-α) [5] [%],[35S]GTPγS % inhibition of max (IL-8) [5] [%],[35S]GTPγS IC50 (ENA-78) [5] [nM],[35S]GTPγS IC50 (GRO-α) [5] [nM],[35S]GTPγS IC50 (IL-8) [5] [nM],% inhibition of max [6] [%],IC50 [6] [nM],% inhibition of max [7] [%],IC50 [7] [nM],IC50 [8] [nM],FLIPR hGro-α IC50 [10] [nM],FLIPR hGro-α IC50 [11] [nM],further results
B1,100,1.64,100,6.98,0.12,0.143,0.17,100,100,100,0.707,0.634,0.619,98.5,1.78,100,0.99,,,,
B2,,,,,,,,,,,,,,,,,,19,19000,390,IC50 [9]: 1.5 nM
B3,,,,,,,,,,,,,,,,,,54,24000,6100,
B4,,,,,,,,,,,,,,,,,,35,24000,650,% inhibition of max [12]: 64%; IC50 [12]: 31.6 nM; % inhibition of max [13]: 42.7%; IC50 [13]: 2.07 nM; ratio of binding signal relative to blank control [14]: 58.6 ratio; Cynomologus WBSC IC50 (rhGROα) [15]: > 100 nM; Human Chemotaxis IC50 (GROα) [16]: 212 nM; Human WBSC IC50 (rhGROα) [16]: 29.5 nM; IC50 [9]: 1.3 nM; FACS Gro-α competition (% inhibition) [17]: 38.1%; FLIPR % inhibition max [18]: 100%; FLIPR IC50 (GRO-α induced calcium release) [18]: 3850 nM; FLIPR % inhibition max [19]: 100%; FLIPR IC50 (GRO-α induced calcium release) [19]: 441 nM; [35S]GTPγS % inhibition max (GRO-α) [19]: 71.3%; [35S]GTPγS IC50 (GRO-α) [19]: 103 nM
B5,100,9.1,100,12.3,0.26,0.14,0.165,,100,,,0.809,,99,1.82,99.5,0.9,,,,"IC50 (M) at 5 nM GROα (inhibition of GRO-α, FIG. 2) [20]: 6.53e-10 M; IC50 (M) at 15 nM GROα (inhibition of GRO-α, FIG. 2) [20]: 1.98e-09 M; IC50 (M) at 150 nM GROα (inhibition of GRO-α, FIG. 2) [20]: 6.71e-08 M"
B6,100,13.7,100,6.84,0.16,0.16,0.445,100,100,100,1.66,1.38,1.13,98.5,3.9,99.7,1.59,,,,
